Source: patent US20180334496A1 (KODIAK SCIENCES, published 2018)
Values joined by “and” are separate entries in the source; they are usually repeats but may differ in a detail not shown here. Equal entries are not always repeated. Where two headings read alike, the source gives them in different places.

Legend:
[1] = target: T1, human Complement Factor D (serum purified) (human, UniProt P00746 26-253); experiment: KinExA in solution, 37 degrees; free CFD captured on OG1931 beads and detected with KCD004-A647
T1 construct: also called CFD; FD
T1 sequence (P00746 26-253): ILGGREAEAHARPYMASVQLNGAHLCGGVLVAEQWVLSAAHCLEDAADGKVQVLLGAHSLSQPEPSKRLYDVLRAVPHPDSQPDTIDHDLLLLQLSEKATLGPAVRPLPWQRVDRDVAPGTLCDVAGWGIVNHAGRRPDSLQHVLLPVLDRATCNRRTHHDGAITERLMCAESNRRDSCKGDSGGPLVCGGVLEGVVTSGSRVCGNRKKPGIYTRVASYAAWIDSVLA

[2] = target: T1, human Complement Factor D (serum …); experiment: SPR (Biacore), conjugate captured on Protein A chip, serum purified human CFD as analyte, 25 degrees
[3] = target: T1, human Complement Factor D (serum …); experiment: cell-based or functional assay
[4] = target: T2, human complement factor D purified from serum (human, UniProt P00746 26-253); experiment: SPR MX96
T2 construct: serum-purified (CompTech); also called hCFD-Comptech; CFD
T2 sequence (P00746 26-253): as above

[5] = target: T3, recombinant cynomolgus CFD, His-tagged (cynomolgus); experiment: SPR MX96
T3 construct: also called rcyCFD-His; recombinant Cyno-CFD

[6] = target: T4, recombinant human CFD, His-tagged (human, UniProt P00746 26-253); experiment: SPR MX96
T4 construct: also called rhCFD-His
T4 sequence (P00746 26-253 limits assumed): as the sequence (P00746 26-253) above

[7] = target: T5, recombinant human CFD mutant 1 (R157A, R207A), His-tagged (human, UniProt P00746 26-253); experiment: ELISA
T5 construct: positions are linear positions in the mature protein; also called rhCFD-mut1-His; Mut1
T5 sequence (P00746 26-253 R182A/R232A limits assumed): as the sequence (P00746 26-253) above, with R157A, R207A counted along it

[8] = target: T2, human complement factor D purified from …; experiment: cell-based or functional assay
[9] = target: T5, recombinant human CFD mutant 1 (R157A, …); experiment: ELISA, Mut1 Binding, Bin 2
[10] = target: T2, human complement factor D purified from …
[11] = target: T1, human Complement Factor D (serum …); experiment: SPR (Biacore), antibody captured on Protein A chip, serum purified human CFD as analyte, 25 degrees
[12] = target: T6, human Complement Factor D (CFD), purified from human serum (human, UniProt P00746 26-253); experiment: SPR Biacore, full-length IgG captured on protein A chip, serum purified CFD
T6 construct: serum purified (CompTech A136); also called serum purified CFD; hCFD-Comptech
T6 sequence (P00746 26-253): as the sequence (P00746 26-253) above

[13] = target: T7, serum purified human Complement Factor D (human, UniProt P00746 26-253); experiment: SPR Biacore, antibody on protein A chip, single cycle kinetics, 37 C
T7 construct: Serum purified protein flowed over the captured antibodies; also called CFD; human CFD
T7 sequence (P00746 26-253): as above

[14] = target: T7, serum purified human Complement Factor D; experiment: SPR Biacore, antibody on protein A chip, single cycle kinetics, 25 C
[15] = target: T7, serum purified human Complement Factor D; experiment: as above; remark: listed apart in the source
[16] = target: T7, serum purified human Complement Factor D; experiment: SPR Biacore T200, biotinylated OG1965 captured on neutravidin CM5 chip, single cycle kinetics, 37 C
[17] = target: T7, serum purified human Complement Factor D; experiment: SPR Biacore T200, biotinylated OG1965 captured on neutravidin CM5 chip, single cycle kinetics, 25 C
[18] = target: T7, serum purified human Complement Factor D; experiment: SPR Biacore, antibody on protein A chip, single cycle kinetics, 37 C; remark: listed apart in the source
[19] = target: T8, recombinant cynomologus Complement Factor D (cynomolgus); experiment: SPR Biacore, antibody on protein A chip, cyCFD in flow, single cycle kinetics, 37 C
T8 construct: also called cyCFD; cyno CFD

[20] = target: T7, serum purified human Complement Factor D; experiment: SPR Biacore, 25 C
[21] = target: T7, serum purified human Complement Factor D; experiment: SPR Biacore, 37 C
[22] = target: T7, serum purified human Complement Factor D; experiment: SPR Biacore, 25 C; remark: listed apart in the source
[23] = target: T7, serum purified human Complement Factor D; experiment: SPR Biacore, 37 C; remark: listed apart in the source
Wherever CFD Enzymatic activity (% of Neg Ctrl) is given: test concentration or dose not given here.

B1: OG1970 (other)
heavy: EVQLVESGGGLVQPGGSLRLSCAASGYTFTDYYINWVRQAPGKGLEWIGDINPITGDTDYNADFKRRFTFSLDTSKSTAYLQMSSLRAEDTAVYYCTREGPSFAYWGQGTLVTVSSASTKGPSVFPLAPSSKSTSGGTAALGCLVKDYFPEPVTVSWNSGALTSGVHTFPAVLQSSGLYSLSSVVTVPSSSLGTQTYICNVNHKPSNTKVDKKVEPKSCDKTHTCPPCPAPEAAGAPSVFLFPPKPKDTLMISRTPEVTCVVVDVSHEDPEVKFNWYVDGVEVHNAKTKPREEQYNSTYRVVSVLTVLHQDWLNGKEYKCKVSNKALPAPIEKTISKAKGQPREPQVYTLPPSREEMTKNQVSLTCLVKGFYPSDIAVEWESNGQPENNYKTTPPVLDSDGSFFLYSKLTVDKSRWQQGNVFSCSVMHEALHNHYTQKSLSCSPGK
light: DIQLTQSPSSLSASVGDRVTITCRSSQTIVHSNGDTYLEWYQQKPGKAPNLLIRKVSNRFSGVPSRFSGSGSGTDFTLTISSLQPEDFATYYCFQGSHVPVTFGQGTKVEIKRTVAAPSVFIFPPSDEQLKSGTASVVCLLNNFYPREAKVQWKVDNALQSGNSQESVTEQDSKDSTYSLSSTLTLSKADYEKHKVYACEVTHQGLSSPVTKSFNRGEC
modifications: polymer OG1802 (9-arm HEMA-PC polymer, about 750-800 kDa, maleimide) bonded through the sulfhydryl of C443 (EU numbering; 442C in SEQ ID NO: 183), on one of the heavy chains
notes: Antibody-polymer conjugate: decapped OG1965 conjugated to polymer OG1802; The stoichiometry of antibody to polymer is described as 1:1; also called OG1965 bioconjugate; OG1965 conjugated to polymer OG1802
[1]
  Kd: 8.07 pM
  kon: 3.67e+07 M⁻¹ s⁻¹
[2]
  Kd: 6.14 pM
  kon: 2.16e+07 M⁻¹ s⁻¹
[3]
  EC50 (nM) in hemolysis assay (rabbit RBC, normal human serum): 1.65 nM

B2: KCD121 (antibody, V domains shown)
VH: EVQLQQSGPELVKPGASVKISCKASGYTFTDYYKNWMRQRHGESLEWIGDINPNNGDTSYNQKFRGKATLTVDKSSSTAFMELRSLTSEDSAVYYCAREGPSFAYWGQGTLVTVSA
VL: DVLMTQTPLSLPVSLGDQASISCRSNQTIVHSNGDTYLEWYLQKPGQSPNLLIYKVSNRFSGVPDRFSGSGSGTDFTLRISRVEAEDLGVYYCFQGSHVPPTFGGGTKLEIK
notes: chimeric
[4]
  Kd: 1800 pM
[5]
  Kd: 2900 pM
[6]
  Kd: 1300 pM
[7]
  Mut1 Binding (% wt): 0.602 % wt
[8]
  CFD Enzymatic activity (% of Neg Ctrl): 16.7 % of Neg Ctrl
[9]
  binding result: no binding
[10]
  Kd: 293 pM

B3: KCD005 (antibody, V domains shown)
VH: EVQLQQSGPELVKPGASVKISCKASGYTFTDHYMNWVKQSHGKSLEWIGDINPNNGGTSCNQKFKGKATLTVDKSSSTAYMELRSLTSGDSAVYYCTREGASFAFWGQGTLVTVSA
VL: DVLMTQTPLSLPVSLGDQASISCRSSQSIVHSNGDTYLEWYLQKPGQSPKLLIYKVSNRFSGVPDRFSGSGSGTDFTLKISRVEAEDLGVYYCFQGSHVPVTFGAGTKLELK
notes: chimeric
[4]
  Kd: 1400 pM
[5]
  Kd: 2300 pM
[6]
  Kd: 1200 pM
[7]
  Mut1 Binding (% wt): 1.79 % wt
[8]
  CFD Enzymatic activity (% of Neg Ctrl): 49.2 % of Neg Ctrl
[9]
  binding result: no binding
[10]
  Kd: 726 pM

B4: KCD123 (antibody, V domains shown)
VH: EVHLQQSGPELVKPGASVKISCKASGYTFTDFYKNWMRQRHGESLEWIGDINPNNGGTNYNQKFKGKATLTVDKSSSTAYMELRSLTSEDSAVYYCAREGPSFAYWGQGTLVTVSA
VL: DVLMTQTPLSLPVSLGDQASISCRSSQTIVHSNGDTYLEWYLQKPGQSPNLLIYKVSNRFSGVPDRFSGSGSGTDFTLKISRVEAEDLGVYYCFQGSHVPPTFGGGTKLEIK
notes: chimeric
[4]
  Kd: 2800 pM
[5]
  Kd: 2900 pM
[6]
  Kd: 1300 pM
[7]
  Mut1 Binding (% wt): 2.91 % wt
[8]
  CFD Enzymatic activity (% of Neg Ctrl): 18.7 % of Neg Ctrl
[9]
  binding result: no binding
[10]
  Kd: 277 pM

B5: OG1965 (antibody, IgG1, V domains shown)
VH: EVQLVESGGGLVQPGGSLRLSCAASGYTFTDYYINWVRQAPGKGLEWIGDINPITGDTDYNADFKRRFTFSLDTSKSTAYLQMSSLRAEDTAVYYCTREGPSFAYWGQGTLVTVSS
VL: DIQLTQSPSSLSASVGDRVTITCRSSQTIVHSNGDTYLEWYQQKPGKAPNLLIRKVSNRFSGVPSRFSGSGSGTDFTLTISSLQPEDFATYYCFQGSHVPVTFGQGTKVEIKR
notes: also called 34I54I59D84S/54R101V; 34I54I59D84S (heavy) / 54R101V (light)
[1]
  Kd: 5.86 pM
  kon: 3.06e+07 M⁻¹ s⁻¹
[11]
  Kd: 2.5 pM
  kon: 2.52e+07 M⁻¹ s⁻¹
[3]
  EC50 (nM) in hemolysis assay (rabbit RBC, normal human serum): 1.74 nM

B6: KCD119 TAF (antibody, V domains shown)
VH: EVQLVESGGGLVQPGGSLRLSCAASGYTFTDYYMNWVRQAPGKGLEWIGDINPNTGDTSYNADFKRRFTFSLDTSKSTAYLQMNSLRAEDTAVYYCTREGPSFAYWGQGTLVTVSS
VL: DIQLTQSPSSLSASVGDRVTITCRSSQTIVHSNGDTYLEWYQQKPGKAPNLLIYKVSNRFSGVPSRFSGSGSGTDFTLTISSLQPEDFATYYCFQGSHVPPTFGQGTKVEIK
notes: full IgG captured on protein A; also called TAF KCD119; KCD119 CDRs grafted into the TAF framework
[12]
  Kd: 230 pM

B7: 34I54I59D84S / 54R101V (antibody, human IgG1, V domains shown)
VH: EVQLVESGGGLVQPGGSLRLSCAASGYTFTDYYINWVRQAPGKGLEWIGDINPITGDTDYNADFKRRFTFSLDTSKSTAYLQMSSLRAEDTAVYYCTREGPSFAYWGQGTLVTVSS
VL: DIQLTQSPSSLSASVGDRVTITCRSSQTIVHSNGDTYLEWYQQKPGKAPNLLIRKVSNRFSGVPSRFSGSGSGTDFTLTISSLQPEDFATYYCFQGSHVPVTFGQGTKVEIKR
notes: Human IgG1 kappa; also called OG1965
[13]
  Kd: 5.04 pM
  koff: 0.000202 s⁻¹
  kon: 4e+07 M⁻¹ s⁻¹
[14]
  Kd: 4.37 pM
  koff: 9.02e-05 s⁻¹
  kon: 2.06e+07 M⁻¹ s⁻¹
[15]
  Kd: 4.37 pM
  koff: 9.02e-05 s⁻¹
  kon: 2.06e+07 M⁻¹ s⁻¹
[16]
  Kd: 9.56 pM
  koff: 0.000241 s⁻¹
  kon: 2.55e+07 M⁻¹ s⁻¹
[17]
  Kd: 3.64 pM
  koff: 5.08e-05 s⁻¹
  kon: 1.4e+07 M⁻¹ s⁻¹
[18]
  Kd: 5.04 pM
  koff: 0.000202 s⁻¹
  kon: 4e+07 M⁻¹ s⁻¹
[19]
  Kd: 28 pM
  koff: 0.000978 s⁻¹
  kon: 3.49e+07 M⁻¹ s⁻¹

B8: 31S54I59D / 54R101V (antibody, V domains shown)
VH: EVQLVESGGGLVQPGGSLRLSCAASGYTFTSYYMNWVRQAPGKGLEWIGDINPITGDTDYNADFKRRFTFSLDTSKSTAYLQMNSLRAEDTAVYYCTREGPSFAYWGQGTLVTVSS
VL: DIQLTQSPSSLSASVGDRVTITCRSSQTIVHSNGDTYLEWYQQKPGKAPNLLIRKVSNRFSGVPSRFSGSGSGTDFTLTISSLQPEDFATYYCFQGSHVPVTFGQGTKVEIKR
notes: KCD119 TAF variant
[20]
  Kd: 8.36 pM
  koff: 0.00012 s⁻¹
  kon: 1.44e+07 M⁻¹ s⁻¹
[21]
  Kd: 8.17 pM
  koff: 0.000227 s⁻¹
  kon: 2.78e+07 M⁻¹ s⁻¹
[15]
  Kd: 7.79 pM and 3.66 pM and 8.36 pM
  koff: 7.94e-05 s⁻¹ and 5.12e-05 s⁻¹ and 0.00012 s⁻¹
  kon: 1e+07 M⁻¹ s⁻¹ and 1.4e+07 M⁻¹ s⁻¹ (2×)
[22]
  Kd: 3.66 pM
  koff: 5.12e-05 s⁻¹
  kon: 1.4e+07 M⁻¹ s⁻¹
[23]
  Kd: 6.91 pM
  koff: 0.000214 s⁻¹
  kon: 3.09e+07 M⁻¹ s⁻¹
[18]
  Kd: 6.05 pM and 6.91 pM and 8.17 pM
  koff: 0.00021 s⁻¹ and 0.000214 s⁻¹ and 0.000227 s⁻¹
  kon: 3.48e+07 M⁻¹ s⁻¹ and 3.09e+07 M⁻¹ s⁻¹ and 2.78e+07 M⁻¹ s⁻¹

B9: 31S54I59D84S / 54R101V (antibody, V domains shown)
VH: EVQLVESGGGLVQPGGSLRLSCAASGYTFTSYYMNWVRQAPGKGLEWIGDINPITGDTDYNADFKRRFTFSLDTSKSTAYLQMSSLRAEDTAVYYCTREGPSFAYWGQGTLVTVSS
VL: DIQLTQSPSSLSASVGDRVTITCRSSQTIVHSNGDTYLEWYQQKPGKAPNLLIRKVSNRFSGVPSRFSGSGSGTDFTLTISSLQPEDFATYYCFQGSHVPVTFGQGTKVEIKR
notes: also called 31554159D845 / 54R101V
[15]
  Kd: 6.13 pM
  koff: 9.14e-05 s⁻¹
  kon: 1.49e+07 M⁻¹ s⁻¹
[22]
  Kd: 6.13 pM
  koff: 9.14e-05 s⁻¹
  kon: 1.49e+07 M⁻¹ s⁻¹
[23]
  Kd: 6.13 pM
  koff: 0.000174 s⁻¹
  kon: 2.84e+07 M⁻¹ s⁻¹
[18]
  Kd: 6.13 pM
  koff: 0.000174 s⁻¹
  kon: 2.84e+07 M⁻¹ s⁻¹
